According to patent US20170204402A1:

Legend:
Experiment in all cases: cell-based or functional assay
[1] = target: ACM335-GFP hybrid protein (from plasmid pCm-ACM335-GFP) (Bordetella pertussis)
[2] = target: AC-GFP hybrid protein (wild-type AC fused at its C-terminus to GFP, from plasmid pCm-AC-GFP) (Bordetella pertussis) (UniProt J7QLC0)
[3] = target: ACM335-FKBP hybrid protein (from plasmid pCm-ACM335-FKBP) (Bordetella pertussis) (UniProt P62942)
[4] = target: AC (wild-type, from plasmid pCm-AC, no fused moiety) (Bordetella pertussis) (UniProt J7QLC0)
[5] = target: ACM335 (from plasmid pCm-ACM335, no fused moiety) (Bordetella pertussis) (UniProt J7QLC0)
[6] = target: ACM247-GFP hybrid protein (from plasmid pCm-ACM247-GFP) (Bordetella pertussis) (UniProt J7QLC0)

Substance	β-galactosidase (relative units) [1]	β-galactosidase (relative units) [2]	β-galactosidase (relative units) [3]	β-galactosidase (relative units) [4]	β-galactosidase (relative units) [5]	β gal; CaM from pTr-CaM [1] [Rel. Units]	cAMP; CaM from pTr-CaM (nmol/mg dry weigth) [2]	β gal; CaM from pTr-CaM [2] [Rel. Units]	cAMP; CaM from pTr-CaM (nmol/mg dry weigth) [6]	β gal; CaM from pTr-CaM [6] [Rel. Units]
CaMVU8 (VU-8 calmodulin, from plasmid pCaMVU8) (from UniProt P0DP23 2-149)	6	5	6	6	7	–	–	–	–	–
CaM (from plasmid pTr-CaM, not fused to a moiety of interest) (from UniProt P0DP23 2-149)	–	–	–	–	–	80	> 250	106	< 0.1	1
